Drawing on the supplement of paper PMC10567573, this text covers protein stability index for 94 variants.

B1: ZNF232 (parent)
chain: FPKSEQVYLHFLSVVTEDGPEPKD
B2: SPRY1 (parent)
chain: WIHRPGCRCKNSNTVYCKLESCPS
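Further: lentivirally expressed fusions sorted by FACS into six bins by GFP to DsRed ratio, PSI derived from sequencing read proportions per bin multiplied by bin number.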

One data set covers variants of B1. Put plainly: protein stability index of a GFP-peptide fusion (GPS, HEK-293T) (PSI 1-6); higher = more stable. To be noted: c terminus: a fixed tail appended.
As for FPKSEQVYLHFLSVVTEDTPEPKD, the protein stability index came to 2.34.
As for FPKSEQVYLHFLSVVTEDEPEPKD, the protein stability index was found to be 2.43.
In the case of FPKSEQVYLHFLSVVTEDNPEPKD, the protein stability index amounted to 2.69.
As for FPKSEQVYLHFLSVVTEDFPEPKD, the protein stability index turned out to be 1.54.
As to FPKSEQVYLHFLSVVTEDWPEPKD, the protein stability index is 1.47.
Take FPKSEQVYLHFLSVVTEDKPEPKD: the protein stability index stood at 2.71.
In the case of FPKSEQVYLHFLSVVTEDCPEPKD, the protein stability index came to 1.95.
For FPKSEQVYLHFLSVVTEDIPEPKD, the protein stability index was 1.9.
Take FPKSEQVYLHFLSVVTEDVPEPKD: the protein stability index is 1.5.
The same measure, in the same setting: next, FPKSEQVYLHFLSVVTEDHPEPKD: 2.32; FPKSEQVYLHFLSVVTEDMPEPKD: 2.05.
Consider FPKSEQVYLHFLSVVTEDPPEPKD, for which the protein stability index amounted to 2.21.
For FPKSEQVYLHFLSVVTEDLPEPKD, the protein stability index is 1.93.
FPKSEQVYLHFLSVVTEDGPPPKD: the protein stability index came out at 1.91.
As to FPKSEQVYLHFLSVVTEDGPWPKD, the protein stability index was 1.7.
Turning to FPKSEQVYLHFLSVVTEDGPHPKD, the protein stability index came to 2.02.
As for FPKSEQVYLHFLSVVTEDGPDPKD, the protein stability index turned out to be 2.02.
For the variant FPKSEQVYLHFLSVVTEDGPMPKD, the protein stability index came to 2.04.
Same read-out and setting: next, FPKSEQVYLHFLSVVTEDGPLPKD: 1.91.
On to FPKSEQVYLHFLSVVTEDGPTPKD, for which the protein stability index was found to be 2.06.
As for FPKSEQVYLHFLSVVTEDGPIPKD, the protein stability index came out at 2.33.
With FPKSEQVYLHFLSVVTEDGPKPKD, the protein stability index came out at 2.07.
Take FPKSEQVYLHFLSVVTEDGPCPKD: the protein stability index is 1.91.
Regarding FPKSEQVYLHFLSVVTEDGPNPKD, the protein stability index is 2.12.
Consider FPKSEQVYLHFLSVVTEDGPRPKD, for which the protein stability index was 1.79.
As to FPKSEQVYLHFLSVVTEDGPSPKD, the protein stability index came out at 2.26.
With FPKSEQVYLHFLSVVTEDGPFPKD, the protein stability index was determined as 3.2.
FPKSEQVYLHFLSVVTEDGPQPKD: the protein stability index is 1.71.
On to FPKSEQVYLHFLSVVTEDGPYPKD, for which the protein stability index was 1.68.
FPKSEQVYLHFLSVVTEDGPAPKD: the protein stability index was 2.71.
For the variant FPKSEQVYLHFLSVVTEDGPVPKD, the protein stability index is 2.97.
With FPKSEQVYLHFLSVVTSDGPEPKD, the protein stability index was determined as 1.65.
Take FPKSEQVYLHFLSVVTNDGPEPKD: the protein stability index was determined as 1.66.
Turning to FPKSEQVYLHFLSVVTIDGPEPKD, the protein stability index came to 1.77.
With FPKSEQVYLHFLSVVTPDGPEPKD, the protein stability index amounted to 1.99.
For FPKSEQVYLHFLSVVTMDGPEPKD, the protein stability index is 2.51.
Consider FPKSEQVYLHFLSVVTFDGPEPKD, for which the protein stability index was 2.38.
Consider FPKSEQVYLHFLSVVTTDGPEPKD, for which the protein stability index amounted to 2.08.
FPKSEQVYLHFLSVVTYDGPEPKD: the protein stability index was found to be 2.15.
The same measure, in the same setting: the result for FPKSEQVYLHFLSVVTRDGPEPKD reads 1.88; that for FPKSEQVYLHFLSVVTADGPEPKD, 3.57.
Consider FPKSEQVYLHFLSVVTQDGPEPKD, for which the protein stability index was 1.8.
Consider FPKSEQVYLHFLSVVTWDGPEPKD, for which the protein stability index was determined as 4.03.
Same read-out and setting: next, FPKSEQVYLHFLSVVTLDGPEPKD: 1.56; FPKSEQVYLHFLSVVTDDGPEPKD: 2.62; FPKSEQVYLHFLSVVTKDGPEPKD: 2.

The variants in a further data set derive from B2. Described as above. To be noted: c terminus: a fixed tail appended.
In the case of WIGRPGCRCKNSNTVYCKLESCPS, the protein stability index is 2.76.
WICRPGCRCKNSNTVYCKLESCPS: the protein stability index is 1.48.
Take WIFRPGCRCKNSNTVYCKLESCPS: the protein stability index is 1.87.
Still for that read-out and setting: the result for WIKRPGCRCKNSNTVYCKLESCPS reads 2.13; that for WIIRPGCRCKNSNTVYCKLESCPS, 1.74.
As to WIERPGCRCKNSNTVYCKLESCPS, the protein stability index was 3.78.
Turning to WIARPGCRCKNSNTVYCKLESCPS, the protein stability index amounted to 2.75.
WIDRPGCRCKNSNTVYCKLESCPS: the protein stability index was determined as 3.37.
In the case of WIMRPGCRCKNSNTVYCKLESCPS, the protein stability index came to 2.52.
Consider WILRPGCRCKNSNTVYCKLESCPS, for which the protein stability index is 2.31.
The same measure, in the same setting: the result for WMHRPGCRCKNSNTVYCKLESCPS reads 2.4.
In the case of WNHRPGCRCKNSNTVYCKLESCPS, the protein stability index worked out at 3.22.
For the variant WLHRPGCRCKNSNTVYCKLESCPS, the protein stability index turned out to be 2.34.
As for WRHRPGCRCKNSNTVYCKLESCPS, the protein stability index worked out at 2.46.
In the case of WYHRPGCRCKNSNTVYCKLESCPS, the protein stability index stood at 2.23.
On to WQHRPGCRCKNSNTVYCKLESCPS, for which the protein stability index was found to be 2.82.
Turning to WVHRPGCRCKNSNTVYCKLESCPS, the protein stability index worked out at 2.76.
Consider WDHRPGCRCKNSNTVYCKLESCPS, for which the protein stability index is 3.9.
Consider WHHRPGCRCKNSNTVYCKLESCPS, for which the protein stability index was found to be 2.77.
WWHRPGCRCKNSNTVYCKLESCPS: the protein stability index turned out to be 2.12.
For WGHRPGCRCKNSNTVYCKLESCPS, the protein stability index worked out at 2.73.
In the case of WEHRPGCRCKNSNTVYCKLESCPS, the protein stability index was 3.89.
As to WPHRPGCRCKNSNTVYCKLESCPS, the protein stability index is 3.62.
The same measure, in the same setting: the result for WCHRPGCRCKNSNTVYCKLESCPS reads 3.23; that for WKHRPGCRCKNSNTVYCKLESCPS, 3.39.
For the variant WSHRPGCRCKNSNTVYCKLESCPS, the protein stability index amounted to 3.27.
Consider WFHRPGCRCKNSNTVYCKLESCPS, for which the protein stability index was found to be 1.61.
WAHRPGCRCKNSNTVYCKLESCPS: the protein stability index is 2.68.
With WTHRPGCRCKNSNTVYCKLESCPS, the protein stability index came to 3.13.
Take RIHRPGCRCKNSNTVYCKLESCPS: the protein stability index was 3.79.
The same measure, in the same setting: next, IIHRPGCRCKNSNTVYCKLESCPS: 3; YIHRPGCRCKNSNTVYCKLESCPS: 2.13.
On the same count and under the same terms, the result for SIHRPGCRCKNSNTVYCKLESCPS reads 4.09.
As to MIHRPGCRCKNSNTVYCKLESCPS, the protein stability index stood at 2.88.
Still for that read-out and setting: the result for QIHRPGCRCKNSNTVYCKLESCPS reads 3.23.
Turning to KIHRPGCRCKNSNTVYCKLESCPS, the protein stability index came out at 3.97.
Still for that read-out and setting: the result for GIHRPGCRCKNSNTVYCKLESCPS reads 3.65; that for HIHRPGCRCKNSNTVYCKLESCPS, 3.72; that for TIHRPGCRCKNSNTVYCKLESCPS, 3.45.
In the case of CIHRPGCRCKNSNTVYCKLESCPS, the protein stability index amounted to 3.78.
Same read-out and setting: the result for AIHRPGCRCKNSNTVYCKLESCPS reads 3.52.
Same read-out and setting: next, EIHRPGCRCKNSNTVYCKLESCPS: 3.75; LIHRPGCRCKNSNTVYCKLESCPS: 3.54.
FIHRPGCRCKNSNTVYCKLESCPS: the protein stability index is 2.04.
On the same count and under the same terms, next, VIHRPGCRCKNSNTVYCKLESCPS: 3.03; NIHRPGCRCKNSNTVYCKLESCPS: 4.04; PIHRPGCRCKNSNTVYCKLESCPS: 3.5.
For DIHRPGCRCKNSNTVYCKLESCPS, the protein stability index amounted to 4.38.
